Source: paper PMC8757444 (ACS Omega, 2021)

Biological target: the molecule itself
Assay: dynamic light scattering

B1: Encapsulin from Thermotoga maritima (natural protein)
chain: MEFLKRSFAPLTEKQWQEIDNRAREIFKTQLYGRKFVDVEGPYGWEYAAHPLGEVEVLSDENEVVKWGLRKSLPLIELRATFTLDLWELDNLERGKPNVDLSSLEETVRKVAEFEDEVIFRGCEKSGVKGLLSFEERKIECGSTPKDLLEAIVRALSIFSKDGIEGPYTLVINTDRWINFLKEEAGHYPLEKRVEECLRGGKIITTPRIEDALVVSERGGDFKLILGQDLSIGYEDREKDAVRLFITETFTFQVVNPEALILLKF
B1: binds.
